Reference: paper PMC6768852

What was measured:
Assay in all cases: EMSA
Conditions in all cases: EMSA: 100 pM RNA, 10 mM Tris, 100 mM NaCl, 0.1 mM EDTA, 0.01 mg/mL tRNA, 50 ug/mL heparin, 0.01% IGEPAL CA630, room temperature, 3 h; pH not stated
[1] = target: IMP2 KH3 VL MUT (KH34) (UniProt Q9Y6M1)
[2] = target: IMP2 KH34 double VL MUT (UniProt Q9Y6M1)
[3] = target: IMP2 KH4 VL MUT (KH34) (UniProt Q9Y6M1)
Sequence of IMP2 KH4 VL MUT (KH34) (Q9Y6M1 whole entry): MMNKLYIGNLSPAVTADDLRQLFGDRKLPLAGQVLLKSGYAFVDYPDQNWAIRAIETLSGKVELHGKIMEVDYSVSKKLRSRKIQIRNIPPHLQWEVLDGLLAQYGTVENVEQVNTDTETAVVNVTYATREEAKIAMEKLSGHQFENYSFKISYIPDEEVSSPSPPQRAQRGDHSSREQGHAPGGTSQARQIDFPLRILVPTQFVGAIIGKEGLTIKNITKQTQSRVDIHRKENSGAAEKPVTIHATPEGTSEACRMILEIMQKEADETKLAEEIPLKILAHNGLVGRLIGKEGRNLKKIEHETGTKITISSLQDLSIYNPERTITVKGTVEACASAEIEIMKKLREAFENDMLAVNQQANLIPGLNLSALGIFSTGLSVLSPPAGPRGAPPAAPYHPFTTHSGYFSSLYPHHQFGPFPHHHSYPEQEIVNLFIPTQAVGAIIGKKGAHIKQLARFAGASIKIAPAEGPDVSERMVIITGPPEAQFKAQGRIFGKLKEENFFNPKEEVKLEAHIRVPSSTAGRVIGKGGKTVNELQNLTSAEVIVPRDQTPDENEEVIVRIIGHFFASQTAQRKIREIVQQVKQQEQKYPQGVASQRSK

Sequence of IMP2 KH34 double VL MUT (Q9Y6M1 whole entry): as above
Sequence of IMP2 KH3 VL MUT (KH34) (Q9Y6M1 425-581): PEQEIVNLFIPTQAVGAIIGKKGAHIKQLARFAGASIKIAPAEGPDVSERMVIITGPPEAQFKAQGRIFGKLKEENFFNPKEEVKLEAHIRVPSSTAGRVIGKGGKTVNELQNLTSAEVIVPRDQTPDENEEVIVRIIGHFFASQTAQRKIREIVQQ

With “ACCGGACUGUUACCAACACCCACACCCC [C28 beta-actin zipcode WT]” as the sequence, how does the Kd [1] read?
The Kd was 0.0073 µM.

And the Kd [2]?
Its Kd is 0.0265 µM.

What about the Kd [3] of the same sequence?
The Kd was 0.346 µM.
